Measurements: patent publication US20250283060 (BOARD OF REGENTS, THE UNIVERSITY OF TEXAS SYSTEM, published 2025)

Key:
[1] = biological target: NPT7 v443 with NLS removed (synthetic construct); assay: cell_activity; ZsGreen reporter in HEK293T, 48 h, cytoplasmic; conditions: tags: NLS removed
NPT7 variant ES-443 (V3) = NPT7 variant ES-443 (V3) (synthetic construct); assay: cell_activity; ZsGreen reporter fluorescence in S. cerevisiae; reflects transcription and capping; conditions: tags: SV40 NLS N-terminal

B1: T7 promoter WT (dsDNA)
DNA 1: TAATACGACTCACTATA
DNA 2: TATAGTGAGTCGTATTA
**Q.** With B1 as the binder, how does the binding signal [1] read?
**A.** Its binding signal is about 1.8 fold vs WT NPT7.

**Q.** What about the binding signal (NPT7 variant ES-443 (V3)) of the same binder?
**A.** The binding signal was 76 fold vs K282A control.
